Each block holds one binder with its values, some of them ahead of it.
What was measured:
[1] = target: T1, human SIRPβ1v2, AVI-tagged, biotinylated, monomeric form (human, UniProt Q5TFQ8 30-371, biotinylated); experiment: SPR, captured monomeric antigen
T1 construct: also called huSIRPβ1v2
Method in brief: (§1)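 Single-cycle kinetics at 25° C on a streptavidin/biotin-capture surface holding the monomeric antigen, with five increasing anti-SIRPα antibody concentrations (150 sec association).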

[2] = target: T2, human SIRPβ1v1, AVI-tagged, biotinylated, monomeric form (human, UniProt O00241 30-371, biotinylated); experiment: SPR, captured monomeric antigen
T2 construct: also called huSIRPβ1v1
Method in brief: as §1

[3] = target: T3, human SIRPαBIT, extracellular domain 1-370, Avi-FXa-Fc tag (human, biotinylated); experiment: SPR, captured biotinylated antigen
T3 construct: also called huSIRPαBIT; v1

[4] = target: T4, cynomolgus monkey SIRPα, extracellular domain, Avi-FXa-Fc tag (cynomolgus monkey, biotinylated); experiment: SPR, captured biotinylated antigen
T4 construct: also called cySIRPα

[5] = target: T5, human SIRPβ1v1, extracellular domain, Avi-FXa-Fc tag (human, biotinylated); experiment: SPR, captured biotinylated antigen
T5 construct: also called huSIRPβ1v1

[6] = target: T6, human SIRPβ1v2, extracellular domain, Avi-FXa-Fc tag (human, biotinylated); experiment: SPR, captured biotinylated antigen
T6 construct: also called huSIRPβ1v2

[7] = target: T7, human SIRPα1 extracellular domain 1-370, Avi-FXa-Fc tag (human, biotinylated); experiment: SPR, captured biotinylated antigen
T7 construct: also called huSIRPα1; v2

[8] = target: T8, human SIRPαBIT expressed on cells (human, UniProt P78324 31-504); experiment: flow cytometry, U937 cells
T8 construct: endogenous on U937 cells or transiently expressed on ExpiCHO-S cells; in the SHP-1 assay a ProLink-tagged form on Jurkat cells; also called huSIRPαBIT; U937 cells (huSIRPαBIT)
Method in brief: (§2)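 After 30 min at 4° C., cells were washed and stained with APC-labelled anti-human IgG F(ab′)₂ (1:6,000) for 30 min at 4° C. Read-out was median fluorescence intensity for U937 and mean fluorescence intensity for ExpiCHO-S cells. EC₅₀ (μg/ml) came from a four-parameter logistic fit.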

[9] = target: T8, human SIRPαBIT expressed on cells; experiment: cell-based or functional assay
[10] = target: T9, human SIRPα1 expressed on cells (human, UniProt P78324 31-504); experiment: flow cytometry, ExpiCHO-S cells
T9 construct: whole, on cells; also called huSIRPα1; ExpiCHO-S (huSIRPα1)
Method in brief: as §2

[11] = target: T8, human SIRPαBIT expressed on cells; experiment: flow cytometry, ExpiCHO-S cells
Method in brief: as §2

[12] = target: T10, human SIRPγ, extracellular domain, Avi-FXa-Fc tag (human, biotinylated); experiment: SPR, captured biotinylated antigen
T10 construct: also called huSIRPγ

T3 sequence (chain, as listed by the source limits assumed): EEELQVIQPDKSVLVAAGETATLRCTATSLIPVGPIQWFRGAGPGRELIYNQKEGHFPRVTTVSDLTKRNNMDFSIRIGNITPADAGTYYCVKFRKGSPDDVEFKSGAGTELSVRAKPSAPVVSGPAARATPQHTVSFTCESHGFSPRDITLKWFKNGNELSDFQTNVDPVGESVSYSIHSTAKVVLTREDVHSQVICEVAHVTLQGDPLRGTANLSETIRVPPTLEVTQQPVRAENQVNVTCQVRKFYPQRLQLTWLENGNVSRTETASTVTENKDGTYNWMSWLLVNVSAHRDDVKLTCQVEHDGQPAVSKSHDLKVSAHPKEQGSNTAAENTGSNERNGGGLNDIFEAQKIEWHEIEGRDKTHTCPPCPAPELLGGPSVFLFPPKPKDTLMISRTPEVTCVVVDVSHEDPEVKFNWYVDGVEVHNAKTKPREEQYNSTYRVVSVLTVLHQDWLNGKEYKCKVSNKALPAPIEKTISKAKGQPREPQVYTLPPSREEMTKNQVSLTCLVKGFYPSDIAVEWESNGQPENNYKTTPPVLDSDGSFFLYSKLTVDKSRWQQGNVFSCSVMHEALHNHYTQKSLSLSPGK
T7 sequence (chain, as listed by the source limits assumed): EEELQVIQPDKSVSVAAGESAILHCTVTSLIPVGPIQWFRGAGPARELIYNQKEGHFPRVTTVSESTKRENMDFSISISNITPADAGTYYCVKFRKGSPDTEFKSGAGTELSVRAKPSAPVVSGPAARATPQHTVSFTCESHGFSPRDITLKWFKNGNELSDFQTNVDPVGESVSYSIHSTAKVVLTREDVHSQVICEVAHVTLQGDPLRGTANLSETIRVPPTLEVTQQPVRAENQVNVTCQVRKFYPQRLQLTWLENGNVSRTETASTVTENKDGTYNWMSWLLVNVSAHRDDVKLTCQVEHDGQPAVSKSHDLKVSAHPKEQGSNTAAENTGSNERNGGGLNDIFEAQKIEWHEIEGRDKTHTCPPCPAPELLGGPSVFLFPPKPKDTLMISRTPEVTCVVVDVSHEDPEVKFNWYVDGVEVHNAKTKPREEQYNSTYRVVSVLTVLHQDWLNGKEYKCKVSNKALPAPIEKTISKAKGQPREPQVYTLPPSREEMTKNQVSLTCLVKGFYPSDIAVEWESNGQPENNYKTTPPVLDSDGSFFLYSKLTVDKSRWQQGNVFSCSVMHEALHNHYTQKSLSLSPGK
T4 sequence (chain, as listed by the source limits assumed): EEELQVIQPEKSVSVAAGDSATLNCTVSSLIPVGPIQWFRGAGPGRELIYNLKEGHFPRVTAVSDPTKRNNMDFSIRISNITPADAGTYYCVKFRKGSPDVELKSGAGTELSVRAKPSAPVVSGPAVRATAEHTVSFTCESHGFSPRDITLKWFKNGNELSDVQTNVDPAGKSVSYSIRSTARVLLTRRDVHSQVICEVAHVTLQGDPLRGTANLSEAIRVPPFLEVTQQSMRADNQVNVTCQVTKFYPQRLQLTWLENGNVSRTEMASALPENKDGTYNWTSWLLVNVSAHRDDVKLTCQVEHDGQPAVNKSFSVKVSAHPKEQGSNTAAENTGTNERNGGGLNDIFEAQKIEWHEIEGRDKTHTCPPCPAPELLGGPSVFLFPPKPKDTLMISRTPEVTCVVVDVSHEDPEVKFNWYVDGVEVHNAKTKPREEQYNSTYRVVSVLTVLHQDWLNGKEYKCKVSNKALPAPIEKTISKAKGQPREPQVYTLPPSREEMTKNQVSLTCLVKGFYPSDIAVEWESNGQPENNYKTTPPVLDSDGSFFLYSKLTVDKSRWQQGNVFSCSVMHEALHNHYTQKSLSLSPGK
T6 sequence (chain, as listed by the source limits assumed): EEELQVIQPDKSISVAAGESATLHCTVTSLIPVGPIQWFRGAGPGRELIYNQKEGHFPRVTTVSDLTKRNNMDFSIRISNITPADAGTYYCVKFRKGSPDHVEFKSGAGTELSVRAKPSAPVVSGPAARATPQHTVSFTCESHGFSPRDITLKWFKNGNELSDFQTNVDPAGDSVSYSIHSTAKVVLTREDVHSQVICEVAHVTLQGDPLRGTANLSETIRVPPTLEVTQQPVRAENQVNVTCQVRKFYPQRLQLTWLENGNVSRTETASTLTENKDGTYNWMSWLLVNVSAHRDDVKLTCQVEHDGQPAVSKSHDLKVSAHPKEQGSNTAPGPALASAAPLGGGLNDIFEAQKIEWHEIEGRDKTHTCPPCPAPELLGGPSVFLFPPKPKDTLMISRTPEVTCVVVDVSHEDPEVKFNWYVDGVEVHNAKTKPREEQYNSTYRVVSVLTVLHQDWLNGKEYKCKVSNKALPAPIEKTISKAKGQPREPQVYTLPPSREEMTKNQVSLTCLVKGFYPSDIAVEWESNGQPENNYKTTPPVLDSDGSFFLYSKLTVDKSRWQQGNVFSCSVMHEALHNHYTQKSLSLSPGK
T2 sequence (O00241 30-371): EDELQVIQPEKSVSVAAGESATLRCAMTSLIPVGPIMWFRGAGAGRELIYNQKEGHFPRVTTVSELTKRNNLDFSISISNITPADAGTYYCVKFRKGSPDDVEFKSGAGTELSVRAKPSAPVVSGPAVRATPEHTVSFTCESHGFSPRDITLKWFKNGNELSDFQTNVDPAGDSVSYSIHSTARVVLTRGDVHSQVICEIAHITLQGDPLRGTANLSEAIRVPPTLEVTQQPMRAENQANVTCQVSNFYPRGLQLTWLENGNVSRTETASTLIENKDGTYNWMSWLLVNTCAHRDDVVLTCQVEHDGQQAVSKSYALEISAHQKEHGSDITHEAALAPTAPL
T8 sequence (P78324 31-504 limits assumed): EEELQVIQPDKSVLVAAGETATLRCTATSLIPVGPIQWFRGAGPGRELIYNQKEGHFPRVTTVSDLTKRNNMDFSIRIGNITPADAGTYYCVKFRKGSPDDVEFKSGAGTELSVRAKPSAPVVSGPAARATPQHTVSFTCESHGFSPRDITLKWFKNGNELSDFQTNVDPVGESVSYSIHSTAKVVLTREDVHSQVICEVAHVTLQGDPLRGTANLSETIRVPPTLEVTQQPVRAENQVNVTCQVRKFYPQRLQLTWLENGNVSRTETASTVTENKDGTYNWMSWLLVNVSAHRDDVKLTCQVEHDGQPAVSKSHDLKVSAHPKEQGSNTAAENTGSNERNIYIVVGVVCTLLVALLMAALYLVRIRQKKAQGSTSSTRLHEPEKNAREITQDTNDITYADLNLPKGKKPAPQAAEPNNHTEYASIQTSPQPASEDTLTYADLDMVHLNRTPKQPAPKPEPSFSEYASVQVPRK
T5 sequence (chain, as listed by the source limits assumed): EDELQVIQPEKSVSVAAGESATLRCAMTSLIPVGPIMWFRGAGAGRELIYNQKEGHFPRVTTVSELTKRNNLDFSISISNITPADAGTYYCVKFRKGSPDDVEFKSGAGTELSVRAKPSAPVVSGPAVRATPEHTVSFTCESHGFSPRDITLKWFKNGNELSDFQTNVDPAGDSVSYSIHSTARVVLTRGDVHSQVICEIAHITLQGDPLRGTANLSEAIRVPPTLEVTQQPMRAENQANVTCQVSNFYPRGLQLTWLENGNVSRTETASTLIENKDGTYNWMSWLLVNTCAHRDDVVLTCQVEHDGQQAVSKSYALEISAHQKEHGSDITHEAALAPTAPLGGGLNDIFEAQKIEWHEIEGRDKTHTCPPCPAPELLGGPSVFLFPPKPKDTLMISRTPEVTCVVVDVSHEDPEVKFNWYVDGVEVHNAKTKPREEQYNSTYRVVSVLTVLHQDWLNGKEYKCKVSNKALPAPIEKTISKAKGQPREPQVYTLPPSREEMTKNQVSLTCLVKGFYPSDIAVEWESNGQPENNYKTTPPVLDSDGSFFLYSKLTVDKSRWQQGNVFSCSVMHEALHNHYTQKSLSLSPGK
T1 sequence (Q5TFQ8 30-371): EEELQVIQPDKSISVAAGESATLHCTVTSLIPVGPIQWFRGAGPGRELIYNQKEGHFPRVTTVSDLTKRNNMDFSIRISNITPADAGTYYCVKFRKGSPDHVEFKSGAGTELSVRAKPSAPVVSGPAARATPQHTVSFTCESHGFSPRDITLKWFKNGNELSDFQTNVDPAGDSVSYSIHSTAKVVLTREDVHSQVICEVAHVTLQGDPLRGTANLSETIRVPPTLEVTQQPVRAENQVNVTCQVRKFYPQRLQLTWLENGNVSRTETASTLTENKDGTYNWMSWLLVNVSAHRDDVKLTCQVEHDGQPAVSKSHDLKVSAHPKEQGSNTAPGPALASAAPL
T9 sequence (P78324 other isoform, or with tags, fused parts or gaps limits assumed): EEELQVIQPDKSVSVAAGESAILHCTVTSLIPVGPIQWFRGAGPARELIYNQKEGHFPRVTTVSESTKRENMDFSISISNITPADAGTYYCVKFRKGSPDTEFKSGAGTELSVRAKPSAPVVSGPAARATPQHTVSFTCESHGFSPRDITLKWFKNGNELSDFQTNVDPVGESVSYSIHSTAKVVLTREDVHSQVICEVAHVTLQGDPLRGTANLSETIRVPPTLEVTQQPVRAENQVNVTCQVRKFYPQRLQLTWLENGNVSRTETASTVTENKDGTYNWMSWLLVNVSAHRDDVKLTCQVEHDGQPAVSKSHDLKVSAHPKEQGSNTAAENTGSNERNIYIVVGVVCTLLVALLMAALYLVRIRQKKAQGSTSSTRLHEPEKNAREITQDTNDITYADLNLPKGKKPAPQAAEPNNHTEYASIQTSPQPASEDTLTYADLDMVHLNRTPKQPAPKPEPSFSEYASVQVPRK

Kd [1]: 346 pM
Kd [2]: 220 pM
Kd [3]: 12.8 pM
Kd [5]: 161 pM
Kd [6]: 216 pM
B1: HEFLB (humanized IgG4) (antibody, V domains shown)
VH: EVQLVQSGAEVKKPGESLRISCKASGYSFTSYWVHWVRQMPGKGLEWMGNIDPSDSDTHYSPSFQGHVTLSVDKSISTAYLQLSSLKASDTAMYYCVRGGTGTLAYFAYWGQGTLVTVSS
VL: DVVMTQSPLSLPVTLGQPASISCRSSQSLVHSYGNTYLYWFQQRPGQSPRLLIYRVSNRFSGVPDRFSGSGSGTDFTLKISRVEAEDVGVYYCFQGTHVPYTFGGGTKVEIKR
notes: humanized IgG4 of WO 2017/178653; also called humanized HEFLB
binding result [4]: no binding (tested: below 10 RU cut-off; up to 1600 ng/ml)
binding result [7]: no binding (tested: below 10 RU cut-off; up to 400 ng/ml)

EC50 [8]: 0.09 µg/mL
IC50 (read off the curve), CD47-driven SHP-1 recruitment to SIRPαBIT [9]: ~0.2 µg/mL
Kd [1]: 3200 pM
Kd [2]: 148 pM
EC50 [10]: 0.06 µg/mL
EC50 [11]: 0.01 µg/mL
Kd [3]: < 10 pM
Kd [4]: 4560 pM
Kd [5]: 74.3 pM
Kd [6]: 2010 pM
Kd [7]: < 10 pM
B2: humanized anti-SIRPα antibody 6 (antibody, human IgG1, kappa, L234A L235A, V domains shown)
VH: RQLVESGGGLVQPGGSLRLSCTASGFSLSSHGISWVRQAPGKGLEYIGTIGTGVITYFASWAKGRFTGSKTSSTAYMELSSLRSEDTAVYFCARGSAWNDPFDPWGQGTLVTVSS
VL: DIVMTQSPSSLSASVGDRVTITCQASQSVYGNNDLAWYQQKPGQAPKLLIYLASTLATGVPSRFSGSGSGTDFTLTISSLQPEDFATYYCLGGGDDEADNTFGQGTKVEIKR
notes: human IgG1 LALA, kappa; also called mAb 6

Kd [1]: 153 pM
Kd [2]: 105 pM
Kd [3]: < 10 pM
Kd [12]: 445 pM
Kd [4]: 22.1 pM
Kd [5]: 60.1 pM
Kd [6]: 85.4 pM
Kd [7]: 22.9 pM
B3: 29AM4-5-LALA (IgG1) (antibody, V domains shown)
VH: EVQLVESGGGLVQPGGSLRLSCAASGFNISYYFIHWVRQAPGKGLEWVASVYSSFGYTYYADSVKGRFTISADTSKNTAYLQMNSLRAEDTAVYYCARFTFPGLFDGFFGAYLGSLDYWGQGTLVTVSS
VL: DIQMTQSPSSLSASVGDRVTITCRASQSVSSAVAWYQQKPGKAPKLLIYSASSLYSGVPSRFSGSRSGTDFTLTISSLQPEDFATYYCQQAVNWVGALVTFGQGTKVEIKR
notes: human IgG1 LALA, kappa; also called 29AM4-5huIgG1LALA

EC50 [8]: 0.07 µg/mL
Kd [1]: 25.2 pM
Kd [2]: 18.3 pM
EC50 [10]: 0.14 µg/mL
EC50 [11]: 0.16 µg/mL
Kd [3]: < 10 pM
Kd [12]: < 10 pM
Kd [5]: 32 pM
Kd [6]: < 10 pM
Kd [7]: 12.5 pM
B4: KWAR23-LALA (chimeric IgG1, LALA) (antibody)
heavy: not shown
light: QIVLTQSPAIMSASPGEKVTLTCSASSSVSSSYLYWYQQKPGSSPKLWIYSTSNLASGVPARFSGSGSGTSYSLTISSMEAEDAASYFCHQWSSYPRTFGAGTKLELKRTVAAPSVFIFPPSDEQLKSGTASVVCLLNNFYPREAKVQWKVDNALQSGNSQESVTEQDSKDSTYSLSSTLTLSKADYEKHKVYACEVTHQGLSSPVTKSFNRGEC
notes: chimeric human IgG1 LALA, kappa; also called KWAR23huIgG1LALA

From US20210388107A1 (BYONDIS B V, published 2021)
